In article PMC12102759:

B1: NCOA2 peptide 1073-1088 (Nuclear receptor coactivator 2), 16-mer library wild type / NSP3 UBl1 (ORF1ab Nsp3a Ub1, residues 819-925) (parent)
chain 1: PSDEGALLDQLYLALR
chain 2: APTKVTFGDDTVIEVQGYKSVNITFELDERIDKVLNEKCSAYTVELGTEVNEFACVVADAVIKTLQPVSELLTPLGIDLDEWSMATYYLFDESGEFKLASHMYCSFY
B2: NYNRIN peptide 1030-1045 (Protein NYNRIN), 16-mer library wild type / NSP3 UBl1 (ORF1ab Nsp3a Ub1, residues 819-925) (parent)
chain 1: EAPSLSEEILRALSLH
chain 2: B1 chain 2
B3: PRDM14 peptide 196-211 (PR domain zinc finger protein 14), 16-mer library wild type / NSP3 SUD-M (ORF1ab Nsp3c SUD-M, residues 1356-1493) (parent)
chain 1: QFTEEDLHFVLYGVTP
chain 2: LPSIISNEKQEILGTVSWNLREMLAHAEETRKLMPVCVETKAIVSTIQRKYKGIKIQEGVVDYGARFYFYTSKTTVASLINTLNDLNETLVTMPLGYVTHGLNLEEAARYMRSLKVPATVSVSSPDAVTAYNGYLTSS
B4: PEX5 peptide 240-255 (Peroxisomal targeting signal 1 receptor), 16-mer library wild type / PEX14 Pex14 (PEX14 PEX14, residues 16-84) (parent)
chain 1: AEQWAAEFIQQQGTSD
chain 2: TPGSENVLPREPLIATAVKFLQNSRVRQSPLATRRAFLKKKGLTDEEIDMAFQQSGTAADEPSSLGPAT

Variants of: B1
Assay: not given
Conditions: with NSP3 UBl1 (ORF1ab Nsp3a Ub1, residues 819-925); bait immobilised on MaxiSorp plates (10 µg), library pre-cleared on GST, 2 h binding at 4 °C, five washes; one round per day, days 1-4; value from days 2 and 3; keep out of graded; scale: average fractional NGS count over selection days 2 and 3

Variant	screen value
chain 1 PSDEGALLDQLYLALH [chain 1 R16H]	0.000164
chain 1 PSDEGALLDQLYLALI [chain 1 R16I]	1.03e-05
chain 1 PSDEGALLDQLYLALM [chain 1 R16M]	7.36e-05
chain 1 PSDEGALLDQLYLALQ [chain 1 R16Q]	0.00132
chain 1 PSDEGALLDQLYLALS [chain 1 R16S]	4.51e-05
chain 1 PSDEGALLDQLYLALT [chain 1 R16T]	0.000892
chain 1 PSDEGALLDQLYLALY [chain 1 R16Y]	0.0506
chain 1 PADEGALLDQLYLALR [chain 1 S2A]	1.93e-05
chain 1 PEDEGALLDQLYLALR [chain 1 S2E]	0
chain 1 PFDEGALLDQLYLALR [chain 1 S2F]	4.76e-06
chain 1 PGDEGALLDQLYLALR [chain 1 S2G]	1.09e-05
chain 1 PHDEGALLDQLYLALR [chain 1 S2H]	1.09e-05
chain 1 PIDEGALLDQLYLALR [chain 1 S2I]	0
chain 1 PLDEGALLDQLYLALR [chain 1 S2L]	1.56e-05
chain 1 PMDEGALLDQLYLALR [chain 1 S2M]	8.73e-06
chain 1 PQDEGALLDQLYLALR [chain 1 S2Q]	0.000342
chain 1 PVDEGALLDQLYLALR [chain 1 S2V]	8.33e-06
chain 1 PSDEGALLDQLALALR [chain 1 Y12A]	0
chain 1 PSDEGALLDQLFLALR [chain 1 Y12F]	0.000754
chain 1 PSDEGALLDQLSLALR [chain 1 Y12S]	0
chain 1 PSDEGALLDQLVLALR [chain 1 Y12V]	0

Variants of: B2
Assay: not given
Conditions: with NSP3 UBl1 (ORF1ab Nsp3a Ub1, residues 819-925); bait immobilised on MaxiSorp plates (10 µg), library pre-cleared on GST, 2 h binding at 4 °C, five washes; one round per day, days 1-4; value from days 2 and 3; keep out of graded; scale: average fractional NGS count over selection days 2 and 3

Variant	screen value
chain 1 ESPSLSEEILRALSLH [chain 1 A2S]	0
chain 1 EAPSLSENILRALSLH [chain 1 E8N]	0
chain 1 EAPSLSEPILRALSLH [chain 1 E8P]	0
chain 1 EAPSLSEEALRALSLH [chain 1 I9A]	0
chain 1 EAPSLSEEELRALSLH [chain 1 I9E]	0
chain 1 EAPSGSEEILRALSLH [chain 1 L5G]	0
chain 1 EAPSHSEEILRALSLH [chain 1 L5H]	0
chain 1 EAPSNSEEILRALSLH [chain 1 L5N]	0
chain 1 EAPSLSEEIDRALSLH [chain 1 L10D]	0
chain 1 EAPSLSEEILRAFSLH [chain 1 L13F]	0
chain 1 EAPSLSEEILRAHSLH [chain 1 L13H]	0
chain 1 EAPSLSEEILRAMSLH [chain 1 L13M]	0
chain 1 EAPSLSEEILRARSLH [chain 1 L13R]	0
chain 1 EAPSLSEEILRAVSLH [chain 1 L13V]	0
chain 1 EAPSLSEEILRALSWH [chain 1 L15W]	0
chain 1 EAPSLSEEILLALSLH [chain 1 R11L]	0
chain 1 EAPSLSEEILPALSLH [chain 1 R11P]	0
chain 1 EAPSLSEEILVALSLH [chain 1 R11V]	0
chain 1 EAPMLSEEILRALSLH [chain 1 S4M]	0
chain 1 EAPVLSEEILRALSLH [chain 1 S4V]	0

Variants of: B3
Assay: not given
Conditions: with NSP3 SUD-M (ORF1ab Nsp3c SUD-M, residues 1356-1493); bait immobilised on MaxiSorp plates (10 µg), library pre-cleared on GST, 2 h binding at 4 °C, five washes; one round per day, days 1-4; value from days 2 and 3; keep out of graded; scale: average fractional NGS count over selection days 2 and 3

Variant	screen value
chain 1 QFTDEDLHFVLYGVTP [chain 1 E4D]	2.34e-05
chain 1 QFTFEDLHFVLYGVTP [chain 1 E4F]	1.23e-05
chain 1 QFTNEDLHFVLYGVTP [chain 1 E4N]	0
chain 1 QFTTEDLHFVLYGVTP [chain 1 E4T]	1.11e-05
chain 1 QFTERDLHFVLYGVTP [chain 1 E5R]	0
chain 1 QFTESDLHFVLYGVTP [chain 1 E5S]	0
chain 1 QYTEEDLHFVLYGVTP [chain 1 F2Y]	0
chain 1 QFTEEDLHDVLYGVTP [chain 1 F9D]	0
chain 1 QFTEEDLPFVLYGVTP [chain 1 H8P]	2.01e-05
chain 1 QFTEEDLSFVLYGVTP [chain 1 H8S]	2.39e-05
chain 1 QFTEEDGHFVLYGVTP [chain 1 L7G]	0
chain 1 QFTEEDIHFVLYGVTP [chain 1 L7I]	1.23e-05
chain 1 QFTEEDKHFVLYGVTP [chain 1 L7K]	0
chain 1 QFTEEDLHFVAYGVTP [chain 1 L11A]	0
chain 1 QFTEEDLHFVDYGVTP [chain 1 L11D]	0
chain 1 QFTEEDLHFVEYGVTP [chain 1 L11E]	0
chain 1 QFTEEDLHFVGYGVTP [chain 1 L11G]	0
chain 1 QFTEEDLHFVMYGVTP [chain 1 L11M]	0
chain 1 QFTEEDLHFVNYGVTP [chain 1 L11N]	0

Variant	screen value
chain 1 QFTEEDLHFVTYGVTP [chain 1 L11T]	0
chain 1 QFTEEDLHFVLYGVTW [chain 1 P16W]	2.83e-05
chain 1 QFIEEDLHFVLYGVTP [chain 1 T3I]	0
chain 1 QFQEEDLHFVLYGVTP [chain 1 T3Q]	0
chain 1 QFTEEDLHFVLYGVFP [chain 1 T15F]	0
chain 1 QFTEEDLHFVLYGVMP [chain 1 T15M]	0
chain 1 QFTEEDLHFVLYGVRP [chain 1 T15R]	0
chain 1 QFTEEDLHFDLYGVTP [chain 1 V10D]	0
chain 1 QFTEEDLHFELYGVTP [chain 1 V10E]	0
chain 1 QFTEEDLHFHLYGVTP [chain 1 V10H]	0
chain 1 QFTEEDLHFKLYGVTP [chain 1 V10K]	0
chain 1 QFTEEDLHFNLYGVTP [chain 1 V10N]	0
chain 1 QFTEEDLHFVLYGDTP [chain 1 V14D]	3.47e-05
chain 1 QFTEEDLHFVLYGETP [chain 1 V14E]	3.19e-05
chain 1 QFTEEDLHFVLYGNTP [chain 1 V14N]	3.28e-05
chain 1 QFTEEDLHFVLYGQTP [chain 1 V14Q]	0
chain 1 QFTEEDLHFVLYGYTP [chain 1 V14Y]	1.26e-05
chain 1 QFTEEDLHFVLFGVTP [chain 1 Y12F]	1.23e-05
chain 1 QFTEEDLHFVLPGVTP [chain 1 Y12P]	0

Variants of: B4
Assay: proteomic peptide phage display deep mutational scan (ProP-PD DMS): M13 P8 16-mer library selected against immobilised GST-tagged bait for four days (rounds), NGS of the eluted pools per day and pseudo-replica
Conditions: with PEX14 Pex14 (PEX14 PEX14, residues 16-84); bait immobilised on MaxiSorp plates (10 µg), library pre-cleared on GST, 2 h binding at 4 °C, five washes; one round per day, days 1-4; value from days 2 and 3; keep out of graded; scale: average fractional NGS count over selection days 2 and 3

Variant	screen value
chain 1 FEQWAAEFIQQQGTSD [chain 1 A1F]	0.00013
chain 1 GEQWAAEFIQQQGTSD [chain 1 A1G]	0
chain 1 LEQWAAEFIQQQGTSD [chain 1 A1L]	0.000125
chain 1 AEQWGAEFIQQQGTSD [chain 1 A5G]	0
chain 1 AEQWPAEFIQQQGTSD [chain 1 A5P]	0.000159
chain 1 AEQWVAEFIQQQGTSD [chain 1 A5V]	0.000326
chain 1 AEQWAHEFIQQQGTSD [chain 1 A6H]	0.000232
chain 1 AEQWAQEFIQQQGTSD [chain 1 A6Q]	0.000319
chain 1 AQQWAAEFIQQQGTSD [chain 1 E2Q]	5.27e-05
chain 1 AEQWAAFFIQQQGTSD [chain 1 E7F]	0.00013
chain 1 AEQWAAMFIQQQGTSD [chain 1 E7M]	0.000317
chain 1 AEQWAANFIQQQGTSD [chain 1 E7N]	0.000491
chain 1 AEQWAAPFIQQQGTSD [chain 1 E7P]	0.000118
chain 1 AEQWAARFIQQQGTSD [chain 1 E7R]	0.000213
chain 1 AEQWAASFIQQQGTSD [chain 1 E7S]	0.000242
